Experimental findings from patent US20160272693A1 (ZEALAND PHARMA A S, published 2016) are described below.

*1 amine or outer side, *2 acyl side, *3 side chain or, on linkers, in order; H or OH if unused. Bridges are numbered along the chain shown (N, C = ends). [ ]: non-standard residue; d: D form. The star is where a group is joined. C20 diacid = O=C(O)CCCCCCCCCCCCCCCCCCC(=O)*; γGlu = O=C(O)[C@H](CCC(=O)[*:2])N[*:1]; Hyp = O=C(O)[C@@H]1C[C@@H](O)CN1; NMeI = CC[C@H](C)[C@H](NC)C(=O)O; Sar = CNCC(=O)O

This experiment deals with T1, human amylin receptor 3 (hAMYR3), hCTR2 co-expressed with human receptor activity modifying protein 3 (hRAMP3) (human, UniProt P30988 25-474; O60896 24-148).
T1 sequence (looked up) 1: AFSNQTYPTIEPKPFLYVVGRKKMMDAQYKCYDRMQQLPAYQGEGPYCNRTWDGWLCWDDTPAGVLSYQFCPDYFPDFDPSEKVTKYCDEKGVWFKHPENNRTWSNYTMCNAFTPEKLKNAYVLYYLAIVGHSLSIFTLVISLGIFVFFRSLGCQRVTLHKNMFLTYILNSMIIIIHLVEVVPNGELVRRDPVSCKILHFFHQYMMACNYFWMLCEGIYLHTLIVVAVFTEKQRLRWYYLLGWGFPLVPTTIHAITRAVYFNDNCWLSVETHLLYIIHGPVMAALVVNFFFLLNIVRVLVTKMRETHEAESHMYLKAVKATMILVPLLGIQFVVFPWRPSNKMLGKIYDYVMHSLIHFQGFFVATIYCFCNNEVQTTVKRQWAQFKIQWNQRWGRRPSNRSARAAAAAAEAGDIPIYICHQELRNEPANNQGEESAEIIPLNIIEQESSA
T1 sequence (looked up) 2: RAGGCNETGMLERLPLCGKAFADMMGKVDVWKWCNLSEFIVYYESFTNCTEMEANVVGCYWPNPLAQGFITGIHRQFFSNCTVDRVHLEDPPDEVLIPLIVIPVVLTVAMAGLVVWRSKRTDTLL
As to the kind of experiment: cell-based or functional assay.

B1: [19CD]-isoGlu-R-C( )-NTAT-C( )-ATQRLAHFLHRVSF-Gly(Me)-A-Ile(Me)-LSSTEVGSETP-NH2 (Compd. 21) (peptide)
peptide: {C20 diacid-γGlu}-RCNTATCATQRLAHFLHRVSF[Sar]A[NMeI]LSSTEVGSETP-NH2
modifications: disulfide 2-7
SMILES: CC[C@H](C)[C@@H](C(=O)N[C@@H](CC(C)C)C(=O)N[C@@H](CO)C(=O)N[C@@H](CO)C(=O)N[C@H](C(=O)N[C@@H](CCC(=O)O)C(=O)N[C@H](C(=O)NCC(=O)N[C@@H](CO)C(=O)N[C@@H](CCC(=O)O)C(=O)N[C@H](C(=O)N1CCC[C@H]1C(N)=O)[C@@H](C)O)C(C)C)[C@@H](C)O)N(C)C(=O)[C@H](C)NC(=O)CN(C)C(=O)[C@H](Cc1ccccc1)NC(=O)[C@H](CO)NC(=O)[C@@H](NC(=O)[C@H](CCCNC(=N)N)NC(=O)[C@H](Cc1c[nH]cn1)NC(=O)[C@H](CC(C)C)NC(=O)[C@H](Cc1ccccc1)NC(=O)[C@H](Cc1c[nH]cn1)NC(=O)[C@H](C)NC(=O)[C@H](CC(C)C)NC(=O)[C@H](CCCNC(=N)N)NC(=O)[C@H](CCC(N)=O)NC(=O)[C@@H](NC(=O)[C@H](C)NC(=O)[C@@H]1CSSC[C@H](NC(=O)[C@H](CCCNC(=N)N)NC(=O)CC[C@H](NC(=O)CCCCCCCCCCCCCCCCCCC(=O)O)C(=O)O)C(=O)N[C@@H](CC(N)=O)C(=O)N[C@@H]([C@@H](C)O)C(=O)N[C@@H](C)C(=O)N[C@@H]([C@@H](C)O)C(=O)N1)[C@@H](C)O)C(C)C
Consider B1, for which the “hAMYR3 EC50 (nM); cAMP induction” value was found to be 0.23 nM.

B2: [19CD]-isoGlu-R-C( )-GTAT-C( )-ATERLANFLVRSSF-Gly(Me)-A-Ile(Me)-LSSTEVGSNT-Hyp-NH2 (Compd. 17) (peptide)
peptide: {C20 diacid-γGlu}-RCGTATCATERLANFLVRSSF[Sar]A[NMeI]LSSTEVGSNT[Hyp]-NH2
modifications: disulfide 2-7
SMILES: CC[C@H](C)[C@@H](C(=O)N[C@@H](CC(C)C)C(=O)N[C@@H](CO)C(=O)N[C@@H](CO)C(=O)N[C@H](C(=O)N[C@@H](CCC(=O)O)C(=O)N[C@H](C(=O)NCC(=O)N[C@@H](CO)C(=O)N[C@@H](CC(N)=O)C(=O)N[C@H](C(=O)N1C[C@H](O)C[C@H]1C(N)=O)[C@@H](C)O)C(C)C)[C@@H](C)O)N(C)C(=O)[C@H](C)NC(=O)CN(C)C(=O)[C@H](Cc1ccccc1)NC(=O)[C@H](CO)NC(=O)[C@H](CO)NC(=O)[C@H](CCCNC(=N)N)NC(=O)[C@@H](NC(=O)[C@H](CC(C)C)NC(=O)[C@H](Cc1ccccc1)NC(=O)[C@H](CC(N)=O)NC(=O)[C@H](C)NC(=O)[C@H](CC(C)C)NC(=O)[C@H](CCCNC(=N)N)NC(=O)[C@H](CCC(=O)O)NC(=O)[C@@H](NC(=O)[C@H](C)NC(=O)[C@@H]1CSSC[C@H](NC(=O)[C@H](CCCNC(=N)N)NC(=O)CC[C@H](NC(=O)CCCCCCCCCCCCCCCCCCC(=O)O)C(=O)O)C(=O)NCC(=O)N[C@@H]([C@@H](C)O)C(=O)N[C@@H](C)C(=O)N[C@@H]([C@@H](C)O)C(=O)N1)[C@@H](C)O)C(C)C
With B2, the “hAMYR3 EC50 (nM); cAMP induction” value is 0.61 nM.

B3: [19CD]-isoGlu-R-C( )-GTAT-C( )-ATERLAHFLKRSSF-Gly(Me)-A-Ile(Me)-LSSTEVGSNT-Hyp-NH2 (Compd. 19) (peptide)
peptide: {C20 diacid}-[γGlu]RCGTATCATERLAHFLKRSSF[Sar]A[NMeI]LSSTEVGSNT[Hyp]-NH2
modifications: disulfide 3-8
SMILES: CC[C@H](C)[C@@H](C(=O)N[C@@H](CC(C)C)C(=O)N[C@@H](CO)C(=O)N[C@@H](CO)C(=O)N[C@H](C(=O)N[C@@H](CCC(=O)O)C(=O)N[C@H](C(=O)NCC(=O)N[C@@H](CO)C(=O)N[C@@H](CC(N)=O)C(=O)N[C@H](C(=O)N1C[C@H](O)C[C@H]1C(N)=O)[C@@H](C)O)C(C)C)[C@@H](C)O)N(C)C(=O)[C@H](C)NC(=O)CN(C)C(=O)[C@H](Cc1ccccc1)NC(=O)[C@H](CO)NC(=O)[C@H](CO)NC(=O)[C@H](CCCNC(=N)N)NC(=O)[C@H](CCCCN)NC(=O)[C@H](CC(C)C)NC(=O)[C@H](Cc1ccccc1)NC(=O)[C@H](Cc1c[nH]cn1)NC(=O)[C@H](C)NC(=O)[C@H](CC(C)C)NC(=O)[C@H](CCCNC(=N)N)NC(=O)[C@H](CCC(=O)O)NC(=O)[C@@H](NC(=O)[C@H](C)NC(=O)[C@@H]1CSSC[C@H](NC(=O)[C@H](CCCNC(=N)N)NC(=O)CC[C@H](NC(=O)CCCCCCCCCCCCCCCCCCC(=O)O)C(=O)O)C(=O)NCC(=O)N[C@@H]([C@@H](C)O)C(=O)N[C@@H](C)C(=O)N[C@@H]([C@@H](C)O)C(=O)N1)[C@@H](C)O
On to B3, for which the “hAMYR3 EC50 (nM); cAMP induction” value stood at 0.28 nM. Take {C20 diacid-γGlu}-RCNTATCATQRLAHFLHRSSF[Sar]A[NMeI]LSSTEVGSETP-NH2 (disulfide 2-7) [[19CD]-isoGlu-R-C( )-NTAT-C( )-ATQRLAHFLHRSSF-Gly(Me)-A-Ile(Me)-LSSTEVGSETP-NH2 (Compd. 2)]: the “hAMYR3 EC50 (nM); cAMP induction” value is 0.12 nM.

B4: [19CD]-isoGlu-R-C( )-GTAT-C( )-ATERLAHFLTRSSF-Gly(Me)-A-Ile(Me)-LSSTEVGSNT-Hyp-NH2 (Compd. 18) (peptide)
peptide: {C20 diacid}-[γGlu]RCGTATCATERLAHFLTRSSF[Sar]A[NMeI]LSSTEVGSNT[Hyp]-NH2
modifications: disulfide 3-8
SMILES: CC[C@H](C)[C@@H](C(=O)N[C@@H](CC(C)C)C(=O)N[C@@H](CO)C(=O)N[C@@H](CO)C(=O)N[C@H](C(=O)N[C@@H](CCC(=O)O)C(=O)N[C@H](C(=O)NCC(=O)N[C@@H](CO)C(=O)N[C@@H](CC(N)=O)C(=O)N[C@H](C(=O)N1C[C@H](O)C[C@H]1C(N)=O)[C@@H](C)O)C(C)C)[C@@H](C)O)N(C)C(=O)[C@H](C)NC(=O)CN(C)C(=O)[C@H](Cc1ccccc1)NC(=O)[C@H](CO)NC(=O)[C@H](CO)NC(=O)[C@H](CCCNC(=N)N)NC(=O)[C@@H](NC(=O)[C@H](CC(C)C)NC(=O)[C@H](Cc1ccccc1)NC(=O)[C@H](Cc1c[nH]cn1)NC(=O)[C@H](C)NC(=O)[C@H](CC(C)C)NC(=O)[C@H](CCCNC(=N)N)NC(=O)[C@H](CCC(=O)O)NC(=O)[C@@H](NC(=O)[C@H](C)NC(=O)[C@@H]1CSSC[C@H](NC(=O)[C@H](CCCNC(=N)N)NC(=O)CC[C@H](NC(=O)CCCCCCCCCCCCCCCCCCC(=O)O)C(=O)O)C(=O)NCC(=O)N[C@@H]([C@@H](C)O)C(=O)N[C@@H](C)C(=O)N[C@@H]([C@@H](C)O)C(=O)N1)[C@@H](C)O)[C@@H](C)O
Regarding B4, the “hAMYR3 EC50 (nM); cAMP induction” value came to 0.41 nM.

B5: [19CD]-isoGlu-R-C( )-GTAT-C( )-ATERLAHFLHRSSF-Gly(Me)-A-Ile(Me)-LSSTEVGSNTP-NH2 (Compd. 15) (peptide)
peptide: {C20 diacid}-[γGlu]RCGTATCATERLAHFLHRSSF[Sar]A[NMeI]LSSTEVGSNTP-NH2
modifications: disulfide 3-8
SMILES: CC[C@H](C)[C@@H](C(=O)N[C@@H](CC(C)C)C(=O)N[C@@H](CO)C(=O)N[C@@H](CO)C(=O)N[C@H](C(=O)N[C@@H](CCC(=O)O)C(=O)N[C@H](C(=O)NCC(=O)N[C@@H](CO)C(=O)N[C@@H](CC(N)=O)C(=O)N[C@H](C(=O)N1CCC[C@H]1C(N)=O)[C@@H](C)O)C(C)C)[C@@H](C)O)N(C)C(=O)[C@H](C)NC(=O)CN(C)C(=O)[C@H](Cc1ccccc1)NC(=O)[C@H](CO)NC(=O)[C@H](CO)NC(=O)[C@H](CCCNC(=N)N)NC(=O)[C@H](Cc1c[nH]cn1)NC(=O)[C@H](CC(C)C)NC(=O)[C@H](Cc1ccccc1)NC(=O)[C@H](Cc1c[nH]cn1)NC(=O)[C@H](C)NC(=O)[C@H](CC(C)C)NC(=O)[C@H](CCCNC(=N)N)NC(=O)[C@H](CCC(=O)O)NC(=O)[C@@H](NC(=O)[C@H](C)NC(=O)[C@@H]1CSSC[C@H](NC(=O)[C@H](CCCNC(=N)N)NC(=O)CC[C@H](NC(=O)CCCCCCCCCCCCCCCCCCC(=O)O)C(=O)O)C(=O)NCC(=O)N[C@@H]([C@@H](C)O)C(=O)N[C@@H](C)C(=O)N[C@@H]([C@@H](C)O)C(=O)N1)[C@@H](C)O
Consider B5, for which the “hAMYR3 EC50 (nM); cAMP induction” value is 0.079 nM.

B6: [19CD]-isoGlu-R-C( )-NTAT-C( )-ATQRLAHFLHRSVF-Gly(Me)-A-Ile(Me)-LSSTEVGSETP-NH2 (Compd. 20) (peptide)
peptide: {C20 diacid-γGlu}-RCNTATCATQRLAHFLHRSVF[Sar]A[NMeI]LSSTEVGSETP-NH2
modifications: disulfide 2-7
SMILES: CC[C@H](C)[C@@H](C(=O)N[C@@H](CC(C)C)C(=O)N[C@@H](CO)C(=O)N[C@@H](CO)C(=O)N[C@H](C(=O)N[C@@H](CCC(=O)O)C(=O)N[C@H](C(=O)NCC(=O)N[C@@H](CO)C(=O)N[C@@H](CCC(=O)O)C(=O)N[C@H](C(=O)N1CCC[C@H]1C(N)=O)[C@@H](C)O)C(C)C)[C@@H](C)O)N(C)C(=O)[C@H](C)NC(=O)CN(C)C(=O)[C@H](Cc1ccccc1)NC(=O)[C@@H](NC(=O)[C@H](CO)NC(=O)[C@H](CCCNC(=N)N)NC(=O)[C@H](Cc1c[nH]cn1)NC(=O)[C@H](CC(C)C)NC(=O)[C@H](Cc1ccccc1)NC(=O)[C@H](Cc1c[nH]cn1)NC(=O)[C@H](C)NC(=O)[C@H](CC(C)C)NC(=O)[C@H](CCCNC(=N)N)NC(=O)[C@H](CCC(N)=O)NC(=O)[C@@H](NC(=O)[C@H](C)NC(=O)[C@@H]1CSSC[C@H](NC(=O)[C@H](CCCNC(=N)N)NC(=O)CC[C@H](NC(=O)CCCCCCCCCCCCCCCCCCC(=O)O)C(=O)O)C(=O)N[C@@H](CC(N)=O)C(=O)N[C@@H]([C@@H](C)O)C(=O)N[C@@H](C)C(=O)N[C@@H]([C@@H](C)O)C(=O)N1)[C@@H](C)O)C(C)C
In the case of B6, the “hAMYR3 EC50 (nM); cAMP induction” value stood at 0.33 nM. The figure for {C20 diacid-γGlu}-RCNTATCATQRLAHFLHRSSF[Sar]A[NMeI]LSSTEVGSNTP-NH2 (disulfide 2-7) [[19CD]-isoGlu-R-C( )-NTAT-C( )-ATQRLAHFLHRSSF-Gly(Me)-A-Ile(Me)-LSSTEVGSNTP-NH2 (Compd. 16)] is 0.11 nM.
